Reference: US12583888B2, “Bi-specific extracellular matrix binding peptides and methods of use thereof” (University of Tartu, priority 2019, dated 2026)

Columns and labels:
WT-GBM tumor = details: i.v. equimolar mix, 2 h circulation
Description: (§1) In vivo play-off was used to evaluate systemic homing of peptide phage to xenograft tumor models. The in vitro selected candidate TNC-C binding peptides, phages displaying published tumor homing peptides, and control peptides were amplified and purified by precipitation with PEG-8000 (Sigma-Aldrich, St. Louis, MO, USA), followed by CsCl2 gradient ultracentrifugation and dialysis. The amplified phage peptides were pooled in equimolar quantities, and injected intravenously (final 1×10^10 pfu in 200 μl PBS) in tumor-bearing mice for two hour circulation, after which mice were anesthetized with 2.5% avertin and intracardially perfused with DMEM intracardially. The tumors and organs were collected in lysogeny broth (LB)+1% NP40, and the tissues were homogenized using a hand-held homogenizer for phage peptide rescue. Phages in the tissue lysates were amplified in E. coli, purified by precipitation with PEG-8000 and DNA was extracted using a DNA extraction kit (High Pure PCR Template Preparation Kit; Roche, Basel, Switzerland). Next-generation sequencing of phage genomic DNA evaluated the representation of each phage in input mixture, in tumor and control organs with Ion Torrent system (Thermo Fisher Scientific, Waltham, MA, USA). The next generation deep sequencing of phage library was done using Ion Torrent according to the manufacturer's protocol with slight modification. The FASTQ data from Ion Torrent was processed by a custom python script that identified the barcodes, constant flanking residues, and extracted the reads of the correct length.

normal brain = details: i.v. equimolar mix, 2 h circulation
Description: as §1

[1] = test system: PC3 prostate carcinoma xenografts; details: i.v. equimolar mix, 2 h circulation
Description: as §1

P3 stem cell-like tumor = details: i.v. equimolar mix, 2 h circulation
Description: as §1

P13 tumor = details: i.v. equimolar mix, 2 h circulation
Description: as §1

U87-MG glioblastoma = details: i.v. equimolar mix, 2 h circulation
Description: as §1

NRP-1 b1b2 domain = biological target: T1, NRP-1 b1b2 domain (Homo sapiens, UniProt O14786); assay: PL1 phage binding to recombinant control protein NRP-1; details: phage-displayed peptide
T1 construct: His-tagged NRP-1 b1b2 domain were used as positive control; His tag; made in house
T1 sequence (O14786 273-586 limits assumed): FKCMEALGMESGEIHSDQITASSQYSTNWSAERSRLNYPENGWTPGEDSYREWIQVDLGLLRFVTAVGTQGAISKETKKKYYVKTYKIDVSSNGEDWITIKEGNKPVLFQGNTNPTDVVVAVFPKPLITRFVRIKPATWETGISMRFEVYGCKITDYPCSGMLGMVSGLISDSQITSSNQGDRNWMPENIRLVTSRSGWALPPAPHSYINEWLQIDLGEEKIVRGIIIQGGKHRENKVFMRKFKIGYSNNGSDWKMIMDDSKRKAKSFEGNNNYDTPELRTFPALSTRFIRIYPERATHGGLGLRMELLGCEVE
Procedure: (§2) To identify bispecific peptides that interact with both TNC-C and FN-EDB, cross screens were performed on both targets. During the first round of selection, microtiter plates coated with 20 μg/ml recombinant purified TNC-C were blocked with PBS containing 1% bovine serum albumin (BSA), followed by incubation with 5×10^8 pfu of phages in PBS at 4° C. overnight, by washes to remove background, and by phage rescue and amplification in BLT5403 strain of E. coli (Novagen, EMD Biosciences, MA, USA) (Teesalu et al., Methods Enzymol. 503:35-56 (2012)). The following rounds of biopanning were carried on Ni-NTA Magnetic Agarose Beads (QIAGEN, Hilden, Germany) coated with hexahistidine-tagged FN-EDB (3 μg/μl beads) at room temperature. After 5 rounds of selection, a set of random clones was sequenced, and individual peptide-phage clones and control (G7 peptide-displaying or insertless) phages were incubated with FN-EDB and TNC-C-coated magnetic beads. RPARPAR phage (SEQ ID NO:5) and His-tagged NRP-1 b1b2 domain were used as positive control (Teesalu et al., Proc. Natl. Acad. Sci. U.S.A 106:16157-62 (2009)). To address the specificity of the peptide phage binding to the FN-EDB and TNC-C, the protein-coated beads were pre-incubated with 20 μg/ml blocking rabbit polyclonal antibodies.

FN-EDB and TNC-C [2] = assay: Cell-free peptide binding assay (immobilized FAM-peptide, His-tagged protein, ELISA)
Procedure: The FAM-labeled peptides were coated on ELISA plates (Nunc Maxisorp, Thermo Fisher Scientific Inc., MA, USA), blocked with PBS containing 1% BSA, and incubated with recombinant proteins at 2 μg/well in PBS for 6 h. The protein was detected using an anti-His-tag antibody, followed by horseradish peroxidase-conjugated secondary antibody, chromogenic reaction, and measurement of absorbance at 450 nm with a microplate reader (Tecan Austria GmbH, Gradig, Austria).

FN-EDB and TNC-C [3] = assay: Peptide-phage binding to FN-EDB- and TNC-C-coated magnetic beads; details: phage-displayed peptide
Procedure: as §2

[4] = test system: Neuropilin 1 b1b2 domain (NRP1) and Fn-EDB; assay: PL2 phage binding to purified NRP1 together with Fn-EDB
Procedure: For cell-free binding studies using individually amplified phage clones; phage was incubated with Fn-EDB coated magnetic beads as described above. RPARPAR phage on NRP-1-coated beads was used as a positive control (Teesalu et al., 2009), Nucleolin (NCL) and Tenascin C-C domain (TNC-C) were used as negative control. Phage clones displaying heptaglycine peptide (GGGGGGG, G7 (SEQ ID NO:20)) or insert less phage clones were used as negative controls.

## AGRGRLVRAKLAAALE
WT-GBM tumor
  Representation of phage in tumors (fold G7 control phage), WT-GBM: 23.9 fold
Normal brain
  Representation of phage in control brain tissue (fold G7 control phage), Norm. brain: 0.0 fold
[1]
  Representation of phage in tumors (fold G7 control phage), PC3: 0.3 fold
P3 stem cell-like tumor
  Representation of phage in tumors (fold G7 control phage), P3 SCL: 0.4 fold
P13 tumor
  Representation of phage in tumors (fold G7 control phage), P13: 0.1 fold
U87-MG glioblastoma
  Representation of phage in tumors (fold G7 control phage), U87-MG: 0.2 fold

## AGVGRLRRAKLAAALE
WT-GBM tumor
  Representation of phage in tumors (fold G7 control phage), WT-GBM: 2.3 fold
Normal brain
  Representation of phage in control brain tissue (fold G7 control phage), Norm. brain: 0.2 fold
[1]
  Representation of phage in tumors (fold G7 control phage), PC3: 1.4 fold
P3 stem cell-like tumor
  Representation of phage in tumors (fold G7 control phage), P3 SCL: 0.9 fold
P13 tumor
  Representation of phage in tumors (fold G7 control phage), P13: 0.9 fold
U87-MG glioblastoma
  Representation of phage in tumors (fold G7 control phage), U87-MG: 1.0 fold

## CAGRGRLVRC
WT-GBM tumor
  Representation of phage in tumors (fold G7 control phage), WT-GBM: 0.9 fold
Normal brain
  Representation of phage in control brain tissue (fold G7 control phage), Norm. brain: 0.0 fold
[1]
  Representation of phage in tumors (fold G7 control phage), PC3: 0.4 fold
P3 stem cell-like tumor
  Representation of phage in tumors (fold G7 control phage), P3 SCL: 0.2 fold
P13 tumor
  Representation of phage in tumors (fold G7 control phage), P13: 0.4 fold
U87-MG glioblastoma
  Representation of phage in tumors (fold G7 control phage), U87-MG: 0.1 fold

## CRGVLRRAKLAAALE
WT-GBM tumor
  Representation of phage in tumors (fold G7 control phage), WT-GBM: 1.6 fold
Normal brain
  Representation of phage in control brain tissue (fold G7 control phage), Norm. brain: 0.1 fold
[1]
  Representation of phage in tumors (fold G7 control phage), PC3: 0.9 fold
P3 stem cell-like tumor
  Representation of phage in tumors (fold G7 control phage), P3 SCL: 0.4 fold
P13 tumor
  Representation of phage in tumors (fold G7 control phage), P13: 0.4 fold
U87-MG glioblastoma
  Representation of phage in tumors (fold G7 control phage), U87-MG: 0.7 fold

## CSRRGILRAKPAAALE
WT-GBM tumor
  Representation of phage in tumors (fold G7 control phage), WT-GBM: 1.5 fold
Normal brain
  Representation of phage in control brain tissue (fold G7 control phage), Norm. brain: 0.1 fold
[1]
  Representation of phage in tumors (fold G7 control phage), PC3: 1.2 fold
P3 stem cell-like tumor
  Representation of phage in tumors (fold G7 control phage), P3 SCL: 0.9 fold
P13 tumor
  Representation of phage in tumors (fold G7 control phage), P13: 0.8 fold
U87-MG glioblastoma
  Representation of phage in tumors (fold G7 control phage), U87-MG: 1.1 fold

## GGGGGGG [reference compound]
WT-GBM tumor
  Representation of phage in tumors (fold G7 control phage), WT-GBM: 1.0 fold
Normal brain
  Representation of phage in control brain tissue (fold G7 control phage), Norm. brain: 1 fold
[1]
  Representation of phage in tumors (fold G7 control phage), PC3: 1.0 fold
P3 stem cell-like tumor
  Representation of phage in tumors (fold G7 control phage), P3 SCL: 1.0 fold
P13 tumor
  Representation of phage in tumors (fold G7 control phage), P13: 1.0 fold
U87-MG glioblastoma
  Representation of phage in tumors (fold G7 control phage), U87-MG: 1.0 fold

## GRLTRVR
WT-GBM tumor
  Representation of phage in tumors (fold G7 control phage), WT-GBM: 1.9 fold
Normal brain
  Representation of phage in control brain tissue (fold G7 control phage), Norm. brain: 0.1 fold
[1]
  Representation of phage in tumors (fold G7 control phage), PC3: 0.9 fold
P3 stem cell-like tumor
  Representation of phage in tumors (fold G7 control phage), P3 SCL: 0.5 fold
P13 tumor
  Representation of phage in tumors (fold G7 control phage), P13: 0.5 fold
U87-MG glioblastoma
  Representation of phage in tumors (fold G7 control phage), U87-MG: 0.9 fold

## PPRRGLIKLKTS [PL1]
NRP-1 b1b2 domain
  interaction of phage with recombinant control protein NRP-1: did not interact
FN-EDB and TNC-C [2]
  binding to FN-EDB and TNC-C on phage and as synthetic FAM-labeled peptide: retained the ability to bind to both FN-EDB and TNC-C
FN-EDB and TNC-C [3]
  Binding Specificity: TNC-C + FN-EDB

## PPRRGLIKLKTSSNTKENSVVASLRP [PL5]
FN-EDB and TNC-C [3]
  Binding Specificity: TNC-C + FN-EDB

## RGRLVRA
WT-GBM tumor
  Representation of phage in tumors (fold G7 control phage), WT-GBM: 3 fold
Normal brain
  Representation of phage in control brain tissue (fold G7 control phage), Norm. brain: 0.1 fold
[1]
  Representation of phage in tumors (fold G7 control phage), PC3: 1.8 fold
P3 stem cell-like tumor
  Representation of phage in tumors (fold G7 control phage), P3 SCL: 0.3 fold
P13 tumor
  Representation of phage in tumors (fold G7 control phage), P13: 0.4 fold
U87-MG glioblastoma
  Representation of phage in tumors (fold G7 control phage), U87-MG: 0.8 fold

## RGRLVRAK
WT-GBM tumor
  Representation of phage in tumors (fold G7 control phage), WT-GBM: 23.8 fold
Normal brain
  Representation of phage in control brain tissue (fold G7 control phage), Norm. brain: 0.2 fold
[1]
  Representation of phage in tumors (fold G7 control phage), PC3: 3.0 fold
P3 stem cell-like tumor
  Representation of phage in tumors (fold G7 control phage), P3 SCL: 0.3 fold
P13 tumor
  Representation of phage in tumors (fold G7 control phage), P13: 0.1 fold
U87-MG glioblastoma
  Representation of phage in tumors (fold G7 control phage), U87-MG: 0.5 fold

## RRLVRVA
WT-GBM tumor
  Representation of phage in tumors (fold G7 control phage), WT-GBM: 1.4 fold
Normal brain
  Representation of phage in control brain tissue (fold G7 control phage), Norm. brain: 0.1 fold
[1]
  Representation of phage in tumors (fold G7 control phage), PC3: 0.9 fold
P3 stem cell-like tumor
  Representation of phage in tumors (fold G7 control phage), P3 SCL: 0.3 fold
P13 tumor
  Representation of phage in tumors (fold G7 control phage), P13: 0.4 fold
U87-MG glioblastoma
  Representation of phage in tumors (fold G7 control phage), U87-MG: 0.6 fold

## TSKQNSR [PL2]
[4]
  binding of phage-displayed peptide to Fn-EDB and NRP1: bind specifically to both Fn-EDB and NRP1

## VGRVRFSRKLAAALE
WT-GBM tumor
  Representation of phage in tumors (fold G7 control phage), WT-GBM: 2.5 fold
Normal brain
  Representation of phage in control brain tissue (fold G7 control phage), Norm. brain: 0.1 fold
[1]
  Representation of phage in tumors (fold G7 control phage), PC3: 1.2 fold
P3 stem cell-like tumor
  Representation of phage in tumors (fold G7 control phage), P3 SCL: 0.4 fold
P13 tumor
  Representation of phage in tumors (fold G7 control phage), P13: 0.5 fold
U87-MG glioblastoma
  Representation of phage in tumors (fold G7 control phage), U87-MG: 0.7 fold
